T1: GRF9-CELD (Arabidopsis thaliana (Col-0?)) (UniProt Q8S9M3)
T1 sequence: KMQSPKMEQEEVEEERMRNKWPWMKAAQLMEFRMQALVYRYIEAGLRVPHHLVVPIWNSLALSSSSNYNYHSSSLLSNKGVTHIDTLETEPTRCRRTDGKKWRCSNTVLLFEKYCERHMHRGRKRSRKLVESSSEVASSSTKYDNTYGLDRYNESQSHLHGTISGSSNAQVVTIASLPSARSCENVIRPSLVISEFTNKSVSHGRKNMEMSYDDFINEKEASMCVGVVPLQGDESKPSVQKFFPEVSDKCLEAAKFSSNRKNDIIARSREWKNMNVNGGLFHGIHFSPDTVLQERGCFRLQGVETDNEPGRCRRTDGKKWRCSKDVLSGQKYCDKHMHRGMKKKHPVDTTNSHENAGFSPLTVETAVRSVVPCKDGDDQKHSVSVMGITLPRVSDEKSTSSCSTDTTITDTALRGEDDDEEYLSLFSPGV

T2: GRF9-CELD (Arabidopsis thaliana, UniProt Q8S9M3 2-431)
T2 sequence: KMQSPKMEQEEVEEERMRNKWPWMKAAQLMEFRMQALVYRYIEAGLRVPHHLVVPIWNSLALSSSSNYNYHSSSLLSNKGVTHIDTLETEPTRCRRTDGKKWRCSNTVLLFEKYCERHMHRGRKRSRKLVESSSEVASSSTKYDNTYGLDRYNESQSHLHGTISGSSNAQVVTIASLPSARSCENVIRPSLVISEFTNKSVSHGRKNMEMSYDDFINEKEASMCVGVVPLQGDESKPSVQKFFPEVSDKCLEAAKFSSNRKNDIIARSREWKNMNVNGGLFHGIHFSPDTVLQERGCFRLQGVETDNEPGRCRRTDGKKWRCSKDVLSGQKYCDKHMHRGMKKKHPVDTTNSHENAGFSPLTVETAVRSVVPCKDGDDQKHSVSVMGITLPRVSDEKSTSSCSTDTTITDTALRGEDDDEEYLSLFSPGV


Columns and labels:
[1] = target: T1, GRF9-CELD (Arabidopsis thaliana (Col-0?)); experiment: CELD plate binding assay (streptavidin plate); conditions: CELD plate assay: 25 mM HEPES/KOH pH 7.0, 50 mM KCl, 0.5 mM DTT, 10 uM ZnCl2, 0.15 ug/ul herring sperm DNA, 0.3 mg/ml BSA, 10% glycerol, 0.025% NP-40, 2 pmol …
GRF9-CELD [2] = target: T2, GRF9-CELD; experiment: competition; molar excess vs labelled N10; CELD plate assay: 25 mM HEPES/KOH pH 7.0, 50 mM KCl, 0.5 mM DTT, 10 uM ZnCl2, 0.15 ug/ul herring sperm DNA, 0.3 mg/ml BSA, 10% glycerol, 0.025% NP-40, 2 pmol probe; binding temperature not stated; EMSA buffer not given (cited protocols); conditions: protein: recombinant, tags: C-terminal CELD (cellulase D) fusion, 6xHis, label: none
GRF9-CELD [3] = target: T2, GRF9-CELD; experiment: CELD plate binding assay (streptavidin plate); 10 uM ZnCl2; CELD plate assay: 25 mM HEPES/KOH pH 7.0, 50 mM KCl, 0.5 mM DTT, 10 uM ZnCl2, 0.15 ug/ul herring sperm DNA, 0.3 mg/ml BSA, 10% glycerol, 0.025% NP-40, 2 pmol probe; binding temperature not stated; EMSA buffer not given (cited protocols); conditions: protein: recombinant; tags: C-terminal CELD (cellulase D) fusion, 6xHis; label: biotin
GRF9-CELD [4] = target: T2, GRF9-CELD; experiment: EMSA; CELD plate assay: 25 mM HEPES/KOH pH 7.0, 50 mM KCl, 0.5 mM DTT, 10 uM ZnCl2, 0.15 ug/ul herring sperm DNA, 0.3 mg/ml BSA, 10% glycerol, 0.025% NP-40, 2 pmol probe; binding temperature not stated; EMSA buffer not given (cited protocols); conditions: protein: recombinant; tags: C-terminal CELD (cellulase D) fusion, 6xHis; label: 5'-DY682; blunt

Molecule | binding signal (GRF9-CELD [3]) | other results
CCGGTACTGGTCTGACATACCAGAACTTCA (double strand) [GRFE1] |  | binding signal (relative to GRFE1) [1]: 1
AGGTAAGTTACTGACACACTCCATTCTTGG (double strand) [GRFE15] |  | binding signal (relative to GRFE1) [1]: 0.8
ORG3 EMSA competitor (dsDNA) DNA 1: CTTTCACTTCATACAACCTGACACCAAATCATCCACATCA DNA 2: TGTGGATGATTTGGTGTCAGGTTGTATGAAGTGAAAG |  | binding result (GRF9-CELD [2]; 3' overhang 3 nt on strand 1 (so in the source)): binds
ORG3 EMSA mutated competitor (dsDNA) DNA 1: CTTTCACTTCATACAACCGGACACCAAATCATCCACATCA DNA 2: TGATGTGGATGATTTGGTGTCCGGTTGTATGAAGTGAAAG |  | binding result (GRF9-CELD [2]; blunt): no binding
GRFE1m1 (dsDNA) DNA 1: CCGGTACTGGACTGACACACCAGAACTTCA DNA 2: TGAAGTTCTGGTGTGTCAGTCCAGTACCGG | 0.79 ± 0.03 relative to GRFE1 | 
GRFE1m2 (dsDNA) DNA 1: CCGGTACTGGCCTGACACACCAGAACTTCA DNA 2: TGAAGTTCTGGTGTGTCAGGCCAGTACCGG | 0.43 ± 0.04 relative to GRFE1 | 
GRFE1m3 (dsDNA) DNA 1: CCGGTACTGGTCTGACAAACCAGAACTTCA DNA 2: TGAAGTTCTGGTTTGTCAGACCAGTACCGG | 0.89 ± 0.08 relative to GRFE1 | 
GRFE1m4 (dsDNA) DNA 1: CCGGTACTGGTGTGACATACCAGAACTTCA DNA 2: TGAAGTTCTGGTATGTCACACCAGTACCGG | 0 relative to GRFE1 | 
GRFE1m5 (dsDNA) DNA 1: CCGGTACTGGTCTGACTTACCAGAACTTCA DNA 2: TGAAGTTCTGGTAAGTCAGACCAGTACCGG | 0 relative to GRFE1 | 
GRFE1m6 (dsDNA) DNA 1: CCGGTACTGGTCGGACATACCAGAACTTCA DNA 2: TGAAGTTCTGGTATGTCCGACCAGTACCGG | 0 relative to GRFE1 | 
GRFE1m7 (dsDNA) DNA 1: CCGGTACTGGTCTGAGATACCAGAACTTCA DNA 2: TGAAGTTCTGGTATCTCAGACCAGTACCGG | 0 relative to GRFE1 | 
ORG3 promoter 40-bp EMSA probe (dsDNA) DNA 1: CTTTCACTTCATACAACCTGACACCAAATCATCCACATCA DNA 2: TGATGTGGATGATTTGGTGTCAGGTTGTATGAAGTGAAAG |  | binding result (GRF9-CELD [4]): binds
